The target in the test is equine FcRn (large alpha subunit p51) in complex with equine beta-2-microglobulin (equine) (UniProt F6XZ61). Description: SPR (Biacore), pH 6. (In SPR one partner is held on a chip, and binding of the other changes the refractive index at the surface.)

Changes are numbered by the printed parent chain. Names and notes keep the numbering of the source.

Chain of UniProt F6XZ61 (F6XZ61 entry or part of it, one chain of several): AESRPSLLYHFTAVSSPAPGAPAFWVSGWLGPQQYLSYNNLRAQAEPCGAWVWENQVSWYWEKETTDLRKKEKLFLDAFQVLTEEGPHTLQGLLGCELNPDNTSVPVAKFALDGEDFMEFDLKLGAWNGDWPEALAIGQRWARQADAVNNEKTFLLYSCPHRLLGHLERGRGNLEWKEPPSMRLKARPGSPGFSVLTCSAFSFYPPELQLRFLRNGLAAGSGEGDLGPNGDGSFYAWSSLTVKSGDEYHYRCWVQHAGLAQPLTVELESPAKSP

B1: equine IgG7 wild-type (antibody, part only; not given: variable domains; allotype unstated, not shown: another chain or arm of the molecule)
constant: ASTTAPKVFPLASHSAATSGSTVALGCLVSSYFPEPVTVSWNSGALTSGVHTFPSVLQSSGLYSLSSMVTVPASSLKSQTYICNVAHPASSTKVDKKIVIKECGGCPTCPECLSVGPSVFIFPPKPKDVLMISRTPTVTCVVVDVGHDFPDVQFNWYVDGVETHTATTEPKQEQNNSTYRVVSILAIQHKDWLSGKEFKCKVNNQALPAPVQKTISKPTGQPREPQVYVLAPHRDELSKNKVSVTCLVKDFYPTDIDIEWKSNGQPEPETKYSTTPAQLDSDGSYFLYSKLTVETNRWQQGTTFTCAVMHEALHNHYTEKSVSKSPGK
As for B1, the Kd (commonly the equilibrium constant for the complex coming apart) is 21.7 nM.

B2: equine IgG7 M428D mutant (antibody, part only; not given: variable domains, not shown: another chain or arm of the molecule)
constant: B1 constant with M309D
With B2, the Kd was 2000 nM. Against the preceding molecule, the Kd is about 92-fold higher.

B3: equine IgG7 M428G mutant (antibody, part only; not given: variable domains, not shown: another chain or arm of the molecule)
constant: B1 constant with M309G
B3 registered a Kd of 96.9 nM.

B4: equine IgG7 M428R mutant (antibody, part only; not given: variable domains, not shown: another chain or arm of the molecule)
constant: B1 constant with M309R
As for B4, the Kd was determined as 1.2 nM.

B5: equine IgG7 K311E mutant (antibody, part only; not given: variable domains, not shown: another chain or arm of the molecule)
constant: B1 constant with K190E
Molecule B5 registered a Kd of 60 nM.

B6: equine IgG7 A426N mutant (antibody, part only; not given: Variable domains, not shown: another chain or arm of the molecule)
constant: B1 constant with A307N
Turning to B6, the equilibrium dissociation constant (Kd) stood at 15.8 nM.

B7: equine IgG7 K311Y mutant (antibody, part only; not given: variable domains, not shown: another chain or arm of the molecule)
constant: B1 constant with K190Y
Regarding B7, the Kd was 18.9 nM.

B8: equine IgG7 M428S mutant (antibody, part only; not given: variable domains, not shown: another chain or arm of the molecule)
constant: B1 constant with M309S
Take B8: the Kd was determined as 5.8 nM.

B9: equine IgG7 N434C mutant (antibody, part only; not given: variable domains, not shown: another chain or arm of the molecule)
constant: B1 constant with N315C
The molecule B9 displayed a Kd of 2.5 nM.

B10: equine IgG7 A426Y mutant (antibody, part only; not given: variable domains, not shown: another chain or arm of the molecule)
constant: B1 constant with A307Y
Consider B10, for which the Kd came to 21.1 nM. This Kd lies about 8.4-fold higher than the previous one.

B11: equine IgG7 K311V mutant (antibody, part only; not given: variable domains, not shown: another chain or arm of the molecule)
constant: B1 constant with K190V
The molecule B11 gave a Kd of 21.3 nM. This Kd and that of the molecule before are within 1.5-fold of each other.

B12: equine IgG7 M428Q mutant (antibody, part only; not given: variable domains, not shown: another chain or arm of the molecule)
constant: B1 constant with M309Q
On to B12, for which the Kd amounted to 20 nM. The Kd values of the last two molecules are within 1.5-fold of each other.

B13: equine IgG7 M428H mutant (antibody, part only; not given: variable domains, not shown: another chain or arm of the molecule)
constant: B1 constant with M309H
B13 registered a Kd of 165 nM.

B14: equine IgG7 K311F mutant (antibody, part only; not given: variable domains, not shown: another chain or arm of the molecule; small tags and cut ends)
constant: B1 constant with K190F
The molecule B14 returned a Kd of 20.5 nM.

B15: equine IgG7 M428W mutant (antibody, part only; not given: variable domains, not shown: another chain or arm of the molecule)
constant: B1 constant with M309W
B15 had a Kd of 6.6 nM.

B16: equine IgG7 K311I mutant (antibody, part only; not given: variable domains, not shown: another chain or arm of the molecule)
constant: B1 constant with K190I
As for B16, the Kd amounted to 15.1 nM.

B17: equine IgG7 K311S mutant (antibody, part only; not given: variable domains, not shown: another chain or arm of the molecule)
constant: B1 constant with K190S
Consider B17, for which the Kd amounted to 27.6 nM.

B18: equine IgG7 M428C mutant (antibody, part only; not given: Variable domains, not shown: another chain or arm of the molecule)
constant: B1 constant with M309C
Molecule B18 yielded a Kd of 14600 nM.

B19: equine IgG7 A426I mutant (antibody, part only; not given: variable domains, not shown: another chain or arm of the molecule)
constant: B1 constant with A307I
For B19, the Kd was determined as 12.6 nM.

B20: equine IgG7 K311Q mutant (antibody, part only; not given: Variable domains, not shown: another chain or arm of the molecule)
constant: B1 constant with K190Q
For B20, the Kd stood at 39.5 nM.

B21: equine IgG7 A426G mutant (antibody, part only; not given: variable domains, not shown: another chain or arm of the molecule)
constant: B1 constant with A307G
In turn, B21 returned a Kd of 13.6 nM.

B22: equine IgG7 K311A mutant (antibody, part only; not given: Variable domains, not shown: another chain or arm of the molecule)
constant: B1 constant with K190A
B22: the Kd is 24.4 nM.

B23: equine IgG7 A426V mutant (antibody, part only; not given: variable domains, not shown: another chain or arm of the molecule)
constant: B1 constant with A307V
As for B23, the Kd turned out to be 23.3 nM.

B24: equine IgG7 K311G mutant (antibody, part only; not given: variable domains, not shown: another chain or arm of the molecule)
constant: B1 constant with K190G
Consider B24, for which the Kd was 20.9 nM.

B25: equine IgG7 K311N mutant (antibody, part only; not given: variable domains, not shown: another chain or arm of the molecule)
constant: B1 constant with K190N
Molecule B25 registered a Kd of 38 nM. Compared with the last molecule, the Kd is about 1.8-fold higher.

B26: equine IgG7 K311T mutant (antibody, part only; not given: variable domains, not shown: another chain or arm of the molecule)
constant: B1 constant with K190T
Molecule B26 returned a Kd of 19.4 nM.

B27: equine IgG7 M428L mutant (antibody, part only; not given: Variable domains, not shown: another chain or arm of the molecule)
constant: B1 constant with M309L
For the molecule B27, the Kd turned out to be 10.5 nM.

B28: equine IgG7 A426W mutant (antibody, part only; not given: variable domains, not shown: another chain or arm of the molecule)
constant: B1 constant with A307W
B28: the Kd stood at 24.1 nM.

B29: equine IgG7 N434F mutant (antibody, part only; not given: Variable domains, not shown: another chain or arm of the molecule; small tags and cut ends)
constant: B1 constant with N315F
The molecule B29 displayed a Kd of 7.4 nM.

B30: equine IgG7 A426P mutant (antibody, part only; not given: variable domains, not shown: another chain or arm of the molecule)
constant: B1 constant with A307P
As for B30, the Kd was 23.2 nM.

B31: equine IgG7 A426H mutant (antibody, part only; not given: variable domains, not shown: another chain or arm of the molecule)
constant: B1 constant with A307H
Take B31: the Kd worked out at 18.4 nM.

B32: equine IgG7 N434E mutant (antibody, part only; not given: variable domains, not shown: another chain or arm of the molecule)
constant: B1 constant with N315E
B32 registered a Kd of 6.1 nM.

B33: equine IgG7 M428E mutant (antibody, part only; not given: variable domains, not shown: another chain or arm of the molecule)
constant: B1 constant with M309E
In turn, B33 came in with a Kd of 39.8 nM. Compared with the last molecule, the Kd is about 6.5-fold higher.

B34: equine IgG7 K311R mutant (antibody, part only; not given: variable domains, not shown: another chain or arm of the molecule)
constant: B1 constant with K190R
With B34, the Kd was found to be 11.8 nM.

B35: equine IgG7 A426S mutant (antibody, part only; not given: variable domains, not shown: another chain or arm of the molecule)
constant: B1 constant with A307S
As to B35, the Kd amounted to 40.4 nM.

B36: equine IgG7 M428I mutant (antibody, part only; not given: variable domains, not shown: another chain or arm of the molecule)
constant: B1 constant with M309I
With B36, the Kd came to 240 nM.

B37: equine IgG7 M428K mutant (antibody, part only; not given: variable domains, not shown: another chain or arm of the molecule)
constant: B1 constant with M309K
Consider B37, for which the Kd is 63.5 nM.

B38: equine IgG7 N434G mutant (antibody, part only; not given: variable domains, not shown: another chain or arm of the molecule; small tags and cut ends)
constant: B1 constant with N315G
Turning to B38, the Kd stood at 7400 nM.

B39: equine IgG7 A426T mutant (antibody, part only; not given: Variable domains, not shown: another chain or arm of the molecule)
constant: B1 constant with A307T
B39 showed a Kd of 26.5 nM.

B40: equine IgG7 A426Q mutant (antibody, part only; not given: variable domains, not shown: another chain or arm of the molecule)
constant: B1 constant with A307Q
For the molecule B40, the Kd was found to be 18.6 nM. The Kd values of the last two molecules are within 1.5-fold of each other.

B41: equine IgG7 M428F mutant (antibody, part only; not given: variable domains, not shown: another chain or arm of the molecule)
constant: B1 constant with M309F
As to B41, the Kd came to 23.9 nM.

B42: equine IgG7 N434A mutant (antibody, part only; not given: variable domains, not shown: another chain or arm of the molecule)
constant: B1 constant with N315A
The molecule B42 had a Kd of 36.4 nM.

B43: equine IgG7 K311L mutant (antibody, part only; not given: variable domains, not shown: another chain or arm of the molecule)
constant: B1 constant with K190L
As for B43, the Kd is 17.3 nM.

B44: equine IgG7 K311H mutant (antibody, part only; not given: Variable domains, not shown: another chain or arm of the molecule)
constant: B1 constant with K190H
In turn, B44 registered a Kd of 19 nM. The Kd values of the last two molecules are within 1.5-fold of each other.

B45: equine IgG7 A426M mutant (antibody, part only; not given: variable domains, not shown: another chain or arm of the molecule)
constant: B1 constant with A307M
In turn, B45 returned a Kd of 22.7 nM.

B46: equine IgG7 A426K mutant (antibody, part only; not given: variable domains, not shown: another chain or arm of the molecule)
constant: B1 constant with A307K
The molecule B46 registered a Kd of 17.8 nM.

B47: equine IgG7 K311C mutant (antibody, part only; not given: variable domains, not shown: another chain or arm of the molecule)
constant: B1 constant with K190C
Regarding B47, the Kd turned out to be 15.9 nM.

B48: equine IgG7 A426L mutant (antibody, part only; not given: Variable domains, not shown: another chain or arm of the molecule)
constant: B1 constant with A307L
In turn, B48 came in with a Kd of 15.6 nM.

B49: equine IgG7 A426E mutant (antibody, part only; not given: variable domains, not shown: another chain or arm of the molecule)
constant: B1 constant with A307E
In the case of B49, the dissociation constant Kd worked out at 13.4 nM. The Kd values of the last two molecules are within 1.5-fold of each other.

B50: equine IgG7 A426D mutant (antibody, part only; not given: variable domains, not shown: another chain or arm of the molecule)
constant: B1 constant with A307D
Turning to B50, the Kd is 18.9 nM.

B51: equine IgG7 A426F mutant (antibody, part only; not given: variable domains, not shown: another chain or arm of the molecule)
constant: B1 constant with A307F
For B51, the Kd was found to be 13.2 nM.

B52: equine IgG7 K311M mutant (antibody, part only; not given: variable domains, not shown: another chain or arm of the molecule)
constant: B1 constant with K190M
For the molecule B52, the Kd is 10.4 nM.

B53: equine IgG7 N434D mutant (antibody, part only; not given: variable domains, not shown: another chain or arm of the molecule)
constant: B1 constant with N315D
Consider B53, for which the Kd was 1.1 nM.

B54: equine IgG7 A426R mutant (antibody, part only; not given: Variable domains, not shown: another chain or arm of the molecule)
constant: B1 constant with A307R
For B54, the Kd is 35 nM.

B55: equine IgG7 A426C mutant (antibody, part only; not given: variable domains, not shown: another chain or arm of the molecule)
constant: B1 constant with A307C
Regarding B55, the Kd is 14.4 nM. Against the preceding molecule, the Kd is about 2.4-fold lower.

B56: equine IgG7 K311D mutant (antibody, part only; not given: Variable domains, not shown: another chain or arm of the molecule)
constant: B1 constant with K190D
B56 yielded a Kd of 34.1 nM.

B57: equine IgG7 K311W mutant (antibody, part only; not given: variable domains, not shown: another chain or arm of the molecule)
constant: B1 constant with K190W
On to B57, for which the Kd stood at 22.1 nM.

These data come from US20260070987A1.
